FireProtDB (doi:10.1006/jmbi.1999.2582)
Where “and” joins values, the source holds several entries; their conditions need not be identical. Identical values can stand only once.

Conditions: Myxococcus xanthus, Mops-NaOH 25 mM, CaCl2 3 mM, transition: 3, reversible: Yes, whole UniProt chain shown

B1: Development-specific protein S wild type, P02966 (protein)
chain: MANITVFYNEDFQGKQVDLPPGNYTRAQLAALGIENNTISSVKVPPGVKAILYQNDGFAGDQIEVVANAEELGPLNNNVSSIRVISVPVQPRARFFYKEQFDGKEVDLPPGQYTQAELERYGIDNNTISSVKPQGLAVVLFKNDNFSGDTLPVNSDAPTLGAMNNNTSSIRIS
Q: Which results are given for B1?
A: denaturant m value (pH 2, 20 °C, Urea, Absorbance): 2.87 kcal/mol/M; denaturant midpoint (higher = more stable) (pH 2, 20 °C, Urea, Absorbance): 2.2 M; unfolding free energy (pH 2, 20 °C, Urea, Absorbance): 6.21 kcal/mol; Tm (pH 2, Thermal, CD): 52 °C; denaturant m value (pH 7, 20 °C, Urea, Absorbance): 1.2 kcal/mol/M and 1.43 kcal/mol/M and 1.91 kcal/mol/M; unfolding free energy (pH 7, 20 °C, Urea, Absorbance): 5.02 kcal/mol and 7.41 kcal/mol and 3.59 kcal/mol
